Data set [1] can be described thus: folding stability dG unfold from trypsin proteolysis; higher = more stable. Summed up: (§1)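 K50 was inferred by Bayesian fitting of sequencing counts obtained after protease digestion of designed mini-proteins. Unfolding free energy was derived by comparison with a sequence-predicted unfolded-state K50 and a shared folded-state K50, for each protease or both combined. The mini-proteins were under 80 residues, had no cysteine, were carried in a PA-tagged cDNA display construct, and were kept only if AlphaFold2 dimer inter-PAE exceeded 15.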

Data set [2] can be described thus: folding stability dG unfold from chymotrypsin proteolysis; higher = more stable. Summed up: as §1
Data set [3] in a line: folding stability dG unfold (combined trypsin and chymotrypsin); higher = more stable. The gist of the method: as §1

± gives the half width of the 95% confidence interval.

Take “SAGGSKIQISIWEDPENDYTWVTIWFPDDEELVDFFVEDIADLGVKKVETERFPDNGWRRITILIRSAGGSA [r2_358_TrROS]”: the entries for the “folding stability dG unfold” value in data set [1], in data set [2] and in data set [3] were 2.43 ± 0.063 kcal/mol, 3.27 ± 0.066 kcal/mol and 2.97 ± 0.12 kcal/mol, respectively.
On the same counts, the results for “SAGGSKKEIEALKGKTVTFPKIRDPKTNELLEPVKVKIVEVKYDKDTKKIYIKVEVDGKIYTFEIDSAGGSA [r2_314_TrROS_Hall]” are 0.868 ± 0.19 kcal/mol, 2.85 ± 0.062 kcal/mol and 2.5 ± 0.37 kcal/mol.
On the same counts, the results for “SAGGSKKIVKEMKSKEVIDLAKKLKEKKDIIIVVKLNGKVKVLDLDKVKPIPDKNVKAIIEIKPKKKSAGGS [r16_628_TrMRF]” are 0.571 ± 0.22 kcal/mol, 0.901 ± 0.094 kcal/mol and 0.745 ± 0.29 kcal/mol.
For the sequence “SAGGSKKKEEVKEIDVVLVEVSEEEALKLAEETGKAVIVVFPDGELRIFYPDGTVETIKLPDLEELSAGGSA [r2_34_TrROS_Hall]”, the entries for the “folding stability dG unfold” value in data set [1], in data set [2] and in data set [3] were 0.377 ± 0.062 kcal/mol, 0.0647 ± 0.082 kcal/mol and 0.296 ± 0.21 kcal/mol, respectively.
On the same counts, the results for “SAGGSKKPKKIIVIEIPENMTEEEIKKLAEELAKKLNIKKIVKIEKKKDGSVRIVLETKDGKKIEFSAGGSA [r2_168_TrROS_Hall]” are 2.3 ± 0.089 kcal/mol, 2.84 ± 0.035 kcal/mol and 2.63 ± 0.16 kcal/mol.
Taken in the same sequence, the figures for “SAGGSKKTIELVIKDKKTNKWLKITIEYDEETGEVTVTIYDKNGEVVKEIKMSKDELKKLLEKLGFSAGGSA [r2_115_TrROS_Hall]” were 3.02 ± 0.22 kcal/mol, 4.37 ± 0.16 kcal/mol and 4.28 ± 0.36 kcal/mol.
Taken in the same sequence, the figures for “SAGGSKKTYIVDSPEEIAKLIESIPEEEYVFAIKGRPDGKPVVEIYSKENIEEAIKENPEIIIPVGSAGGSA [r2_351_TrMRF]” were 0.287 ± 0.058 kcal/mol, 0.641 ± 0.068 kcal/mol and 0.479 ± 0.11 kcal/mol.
Consider “SAGGSKKVPIKVKIEVYNKNGEKMTLEELLKKLEENAKVEKDEKGRLTLYIVNKKTNKIVKIEVEKSAGGSA [r2_234_TrROS_Hall]”, for which the “folding stability dG unfold” value in data set [1] worked out at 1.74 ± 0.18 kcal/mol; in data set [2], 1.92 ± 0.19 kcal/mol; in data set [3] it was 1.72 ± 0.27 kcal/mol.
On the same counts, the results for “SAGGSKLTVEEIKKLFPNVEVTKKEDGTYEMRVTVEVTLPNGEKKKVEVTVKVEVKDGKIVKVEVTSAGGSA [r2_104_TrROS_Hall]” are 2.44 ± 0.15 kcal/mol, 3.17 ± 0.092 kcal/mol and 2.9 ± 0.12 kcal/mol.
On the same counts, the results for “SAGGSKMEPGPVKIKVTDGGEEHTFDFQVSVMPDPDGRPMIMFSFPDGNPLSIPLDDAEKITDIEVSAGGSA [r2_297_TrROS]” are 0.322 ± 0.11 kcal/mol, -0.141 ± 0.29 kcal/mol and 0.106 ± 0.18 kcal/mol.
Regarding “SAGGSKPIRVEIAVPPDVPLEELARRVEEELRELGFEVEVEEVSFLPEEGRVLLRFRDGAVAVIPNSAGGSA [r2_242_TrMRF]”, the “folding stability dG unfold” value was found to be 1.8 ± 0.022 kcal/mol in data set [1], 1.85 ± 0.062 kcal/mol in data set [2] and 1.86 ± 0.068 kcal/mol in data set [3].
Taken in the same sequence, the figures for “SAGGSKPTVTLELYIEVPEEELSEEEIKKLLEELAKELNLEVEVTVEVEEKDGKLIVKVTVTIKKPSAGGSA [r2_172_TrROS_Hall]” were 2.15 ± 0.19 kcal/mol, 2.28 ± 0.14 kcal/mol and 2.25 ± 0.25 kcal/mol.
Consider “SAGGSKPVYKVKIEIEFNGKKIEIEIEAETEEEAKKAVEELLKKLFEENKDNLKIKVEVEKLPEKPSAGGSA [r2_111_TrROS_Hall]”, for which the “folding stability dG unfold” value in data set [1] was 2.95 ± 0.15 kcal/mol; in data set [2] it was 3.15 ± 0.2 kcal/mol; in data set [3], 3.11 ± 0.12 kcal/mol.
Turning to “SAGGSKSKIISASVFTTPDGEKVGVIKVLVKDPNGNPHLVIATIYSDGKIKVSVYYNGKVYTFEFDSAGGSA [r2_182_TrMRF]”, the “folding stability dG unfold” value in data set [1] is 2.41 ± 0.079 kcal/mol; in data set [2] it was 3.95 ± 0.037 kcal/mol; in data set [3] it was 3.52 ± 0.12 kcal/mol.
Taken in the same sequence, the figures for “SAGGSKTIVIDPEKVVKVEVKKNENGEKEIRIVVKNKDGEEKEVTIKPGEKLELPPKVEVVVLPEKSAGGSA [r2_347_TrROS_Hall]” were -0.517 ± 0.28 kcal/mol, 1.39 ± 0.18 kcal/mol and 0.965 ± 0.19 kcal/mol.
On the same counts, the results for “SAGGSKTLIIKIEKIEEFYPPFNNDKIKIPVSVYDPETGEKVLSNEEVAKILEKLFPGIKIGWEEGSAGGSA [r2_27_TrMRF]” are 1.06 ± 0.032 kcal/mol, 0.719 ± 0.036 kcal/mol and 0.937 ± 0.06 kcal/mol.
Taken in the same sequence, the figures for “SAGGSLDVKIEITPPDGSTRTLDIEVESEEEAIKIAEELQKELGEGNTLKVRITYPGPKSPVELELKSAGGS [r8_107_JUSTAS]” were 1.53 ± 0.04 kcal/mol, 2.51 ± 0.046 kcal/mol and 2.2 ± 0.065 kcal/mol.
For the sequence “SAGGSLEEVARALARELGLPDVEVRDIPVEVLPNGTVRIPVTIVRPEAGEPLPPLEVELAPDEPLLSAGGSA [r2_137_JUSTAS]”, the “folding stability dG unfold” value in data set [1] was -0.0103 ± 0.14 kcal/mol; in data set [2], -0.236 ± 0.15 kcal/mol; in data set [3], -0.198 ± 0.14 kcal/mol.
Taken in the same sequence, the figures for “SAGGSLKIRTVLRLPSPDGTPYLVFSKEAVIHPVPNIVHINLLVPDKEITLTVPLNEVELLGSPEEVLSSAG [r5_15_TrMRF]” were 2.13 ± 0.048 kcal/mol, 2.81 ± 0.029 kcal/mol and 2.65 ± 0.097 kcal/mol.
Take “SAGGSLRGVLFDPEGGRVYVLEYDPALGSFRVRPFPVPPVLPISREAAAEILRRELGLPREVVERLLASAGG [r13_824_TrMRF]”: the “folding stability dG unfold” value in data set [1] is 2.58 ± 0.082 kcal/mol; in data set [2] it was 3.438 ± 0.033 kcal/mol; in data set [3], 3.15 ± 0.093 kcal/mol.
On the same counts, the results for “SAGGSMADPGKAKAKVVIGGVEFEFDTTVTVADDPDGRKVLIFTFPDGTPVEIPLEDAEKILEVEGSAGGSA [r2_297_TrMRF]” are 0.996 ± 0.024 kcal/mol, 1.66 ± 0.03 kcal/mol and 1.43 ± 0.067 kcal/mol.
On the same counts, the results for “SAGGSMELKPGDSIEFPENIPLDEIIELAKKIAEEFNFEGIEDIENPSEGFYRIRAITPDGRPIEISAGGSA [r2_168_TrMRF]” are -0.147 ± 0.23 kcal/mol, 0.141 ± 0.18 kcal/mol and 0.0617 ± 0.18 kcal/mol.
Consider “SAGGSMELYTKSPDGKLFKVKIVNPGNAKDKVLFEAEVFDPKNNKPIGRFTGVVDPKTGKIISIKPSAGGSA [r2_324_TrMRF]”, for which the entries for the “folding stability dG unfold” value in data set [1], in data set [2] and in data set [3] were 1.6 ± 0.035 kcal/mol, 1.68 ± 0.083 kcal/mol and 1.64 ± 0.13 kcal/mol, respectively.
Taken in the same sequence, the figures for “SAGGSMEVEEFETTDPATGKPYRLRFTYDSETGIPVLEVFAPDGTPLATVPVEPGEAEAARERLGASAGGSA [r2_115_JUSTAS]” were 0.0239 ± 0.063 kcal/mol, 1.14 ± 0.085 kcal/mol and 0.767 ± 0.058 kcal/mol.
In the case of “SAGGSMEVKVVSYDEEKGVLVIEVDEDETVEELVERLRSIPGLKVEVEVVEKDGKLYVVIRVEKKESAGGSA [r2_44_TrROS_Hall]”, the “folding stability dG unfold” value in data set [1] worked out at 3.17 ± 0.13 kcal/mol; in data set [2], 4.27 ± 0.09 kcal/mol; in data set [3], 3.98 ± 0.18 kcal/mol.
On the same counts, the results for “SAGGSMEVVVTFPDGSKEVIPEEPLKKLAEELGIPWDEEDPEAQWEAIARALAEKTGKPVEKVEIASAGGSA [r2_83_TrMRF]” are 1.97 ± 0.072 kcal/mol, 2.24 ± 0.17 kcal/mol and 2.09 ± 0.093 kcal/mol.
On the same counts, the results for “SAGGSMFKVEEVETLENGEVLAKLTVYLDGKPYPATARIYTLPDGRKVAEIYFPDNPNVSLRIPLTSAGGSA [r2_376_TrMRF]” are 3.91 ± 0.059 kcal/mol, 4.14 ± 0.024 kcal/mol and 4.1 ± 0.053 kcal/mol.
Taken in the same sequence, the figures for “SAGGSMKFSATVEYDPANNIYTVTVPITRKDTGEVIPVSVPVPGSDLTTAEQLAEEIAEKLEKEGLSAGGSA [r2_221_JUSTAS]” were 0.627 ± 0.092 kcal/mol, 0.518 ± 0.14 kcal/mol and 0.621 ± 0.19 kcal/mol.
For “SAGGSMKITVTVSYSELKEKYPDLTEEELKELAEEIAKEKKKEIIEGNPDISENTEIEVKIEKPAVIESAGG [r13_634_JUSTAS]”, the “folding stability dG unfold” value in data set [1] amounted to 0.76 ± 0.11 kcal/mol; in data set [2], 2.27 ± 0.052 kcal/mol; in data set [3], 1.84 ± 0.12 kcal/mol.
For “SAGGSMKVFVFEVKVEVEVKLDKDGNLTVEIKKVEVKPVKKIPLSEEELEKLREAKKKGLTLEEILSAGGSA [r2_327_TrROS_Hall]”, the “folding stability dG unfold” value in data set [1] was found to be 2.07 ± 0.11 kcal/mol; in data set [2], 3.26 ± 0.1 kcal/mol; in data set [3] it was 2.78 ± 0.18 kcal/mol.
On the same counts, the results for “SAGGSMKVYEFKSLEEIKKAIENLPPNEKYIVIKKNKNGKLEIIIVSKEEEEELKKKGVDFIIKVKSAGGSA [r2_351_TrROS_Hall]” are 0.788 ± 0.089 kcal/mol, 2.21 ± 0.07 kcal/mol and 1.95 ± 0.43 kcal/mol.
On the same counts, the results for “SAGGSMLEKEEGDTLVKTVLQPVPEDLSREVLVTTTTKLLPNGSEVTVTVRSPFTGEPLSSSVVLSSAGGSA [r2_412_JUSTAS]” are 0.458 ± 0.054 kcal/mol, 0.635 ± 0.13 kcal/mol and 0.602 ± 0.066 kcal/mol.
Taken in the same sequence, the figures for “SAGGSMLSTEPKETDDEIKVTKIYYPEEPIEVTLTTDPDTDLVTATSPSSTATIDAKTGKTTTTPSSSSAGG [r13_416_JUSTAS]” were -0.285 ± 0.1 kcal/mol, 0.876 ± 0.039 kcal/mol and 0.545 ± 0.14 kcal/mol.
Regarding “SAGGSMMKVTIVDKDGKERVFTFPKDMTEEEVLERIKKELEAEGVEVEEVEVERREDGSLVIRVKKSAGGSA [r2_148_TrROS_Hall]”, the figures for the “folding stability dG unfold” value in data set [1], in data set [2] and in data set [3] were 4.16 ± 0.4 kcal/mol, 3.71 ± 0.064 kcal/mol and 3.93 ± 0.14 kcal/mol, respectively.
In the case of “SAGGSMPFRPLDVKVTVERLPDGTIRITTTLRQPDSPAAVTTEVKEVPLAELVKKRGRPVTAEDLLSAGGSA [r2_180_JUSTAS]”, the entries for the “folding stability dG unfold” value in data set [1], in data set [2] and in data set [3] were 0.132 ± 0.12 kcal/mol, 1.21 ± 0.096 kcal/mol and 0.858 ± 0.19 kcal/mol, respectively.
As to “SAGGSMPPETEVTVTVEEFEEDPSRRLRVTITTPDGTVVTTDLENPGELSPEEEARIAALAAALAASAGGSA [r2_17_JUSTAS]”, the “folding stability dG unfold” value in data set [1] is 0.486 ± 0.026 kcal/mol; in data set [2] it was 1.96 ± 0.027 kcal/mol; in data set [3], 1.58 ± 0.055 kcal/mol.

Source of the values: the supplement of paper PMC12764529.
